Experiment: Transferase activity of Fut7 on 3′-sialyl-N-acetyllactosamine assayed with CD39L3
Format: biochemical
Settings: 0.1 μg CD39L3, 40 μM GDP-fucose, 40 μM 3′-sialyl-N-acetyllactosamine, 37° C., 30 minutes
Description: The GDP-Fucose, UDP-Glucose, CMP-NeuAc, CMP, UDP and GDP used in the following experiments were obtained from Sigma-Aldrich (St Louis, Mo.). The recombinant human Fut7, ST6Gal1, CD73, CD39L3, non-specific alkaline phosphatase TNAP, recombinant Clostridium Difficile toxin B (TcdB) containing the glycosyltransferase domain and Malachite Green Phosphate Detection Kit were obtained from R&D Systems (Minneapolis, Minn.). The 3′-Sialyl-N-acetyllactosamine was obtained from V-LABS, Inc (Convington, La.). Unless otherwise specified, each glycosyltransferase reaction was performed in 50 μL of a buffer of 25 mM Tris, 150 mM NaCl, 5 mM MgCl2 and 5 mM MnCl2, at pH 7.5 in a 96-well plate at room temperature for 20 minutes. To determine kinetic parameters of each glycosyltransferase, multiple reactions with varied amounts of either glycosyltransferase or substrates were preceded simultaneously in the presence of fixed amounts of all other components, including a phosphatase. A well containing all components except glycosyltransferase served as a blank control for each example. […] The plate was then read at 620 nm with a multi-well plate reader.
The only known function of fucosyltransferase 7 (Fut7) is the biosynthesis of sialy Lewis X epitope in leukocytes and high endothelial venule cells. […] The reaction was then stopped and detected by malachite reagents. […]

B1: Fut7: recombinant human fucosyltransferase 7 from R&D Systems (protein, UniProt Q11130 1-342, looked up)
Alpha-(1,3)-fucosyltransferase …: MNNAGHGPTRRLRGLGVLAGVALLAALWLLWLLGSAPRGTPAPQPTITILVWHWPFTDQPPELPSDTCTRYGIARCHLSANRSLLASADAVVFHHRELQTRRSHLPLAQRPRGQPWVWASMESPSHTHGLSHLRGIFNWVLSYRRDSDIFVPYGRLEPHWGPSPPLPAKSRVAAWVVSNFQERQLRARLYRQLAPHLRVDVFGRANGRPLCASCLVPTVAQYRFYLSFENSQHRDYITEKFWRNALVAGTVPVVLGPPRATYEAFVPADAFVHVDDFGSARELAAFLTGMNESRYQRFFAWRDRLRVRLFTDWRERFCAICDRYPHLPRSQVYEDLEGWFQA
**Q.** For B1, which “specific activity of the enzyme” value is on record?
**A.** The value was 12.6 pmol/min/µg.

Reference: patent US9410182B2, “Phosphatase coupled glycosyltransferase assay” (Bio-Techne Corporation, priority 2010, dated 2016)
